Reference: the supplement of paper PMC9233669
Variants at the floor of the assay were thinned out.

What was measured:
biotinyl-Ile-oxazolone = assay: self-aminoacylation, catalytic enhancement (BIO) (fold over background); higher = more active; k-Seq, kA / k0A0; sequences stand for … in GGGAAUGGAUCCACAUCUACGAAUUC…UUCACUGCAGACUUGACGAAGCUG
Summary of the method: (§1)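 Mutagenized RNA pools (0.43 μM; 21-nt variable region) were treated with 2–1250 μM of each biotinyl-aminoacyl-oxazolone. Conditions were 50 μL HEPES/NaCl/KCl/MgCl2/CaCl2 buffer, 5% acetonitrile, pH 6.9–7.0, room temperature, 90 minutes. Catalytic enhancement, the median kA relative to the uncatalyzed rate, was derived from streptavidin capture, qPCR and Illumina sequencing.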

biotinyl-Val-oxazolone = assay: self-aminoacylation, catalytic enhancement (BVO) (fold over background); higher = more active; k-Seq, kA / k0A0; sequences stand for … in GGGAAUGGAUCCACAUCUACGAAUUC…UUCACUGCAGACUUGACGAAGCUG
Summary of the method: as §1

biotinyl-Leu-oxazolone = assay: self-aminoacylation, catalytic enhancement (BLO) (fold over background); higher = more active; k-Seq, kA / k0A0; sequences stand for … in GGGAAUGGAUCCACAUCUACGAAUUC…UUCACUGCAGACUUGACGAAGCUG
Summary of the method: as §1

biotinyl-Phe-oxazolone = assay: self-aminoacylation, catalytic enhancement (BFO) (fold over background); higher = more active; k-Seq, kA / k0A0; sequences stand for … in GGGAAUGGAUCCACAUCUACGAAUUC…UUCACUGCAGACUUGACGAAGCUG
Summary of the method: as §1

biotinyl-Met-oxazolone = assay: self-aminoacylation, catalytic enhancement (BMO) (fold over background); higher = more active; k-Seq, kA / k0A0; sequences stand for … in GGGAAUGGAUCCACAUCUACGAAUUC…UUCACUGCAGACUUGACGAAGCUG
Summary of the method: as §1

biotinyl-Trp-oxazolone = assay: self-aminoacylation, catalytic enhancement (BWO) (fold over background); higher = more active; k-Seq, kA / k0A0; sequences stand for … in GGGAAUGGAUCCACAUCUACGAAUUC…UUCACUGCAGACUUGACGAAGCUG
Summary of the method: as §1

AUUAUCCUGGUGAUCGAGUGA [Fam2.1 aminoacylation ribozyme variant]
self-aminoacylation (biotinyl-Ile-oxazolone): 3.55
self-aminoacylation (biotinyl-Val-oxazolone): 3.46
self-aminoacylation (biotinyl-Leu-oxazolone): 7.98
self-aminoacylation (biotinyl-Phe-oxazolone): 45.5
self-aminoacylation (biotinyl-Met-oxazolone): 7.34
self-aminoacylation (biotinyl-Trp-oxazolone): 9.06

AUUAUCGUGGUCAUCGAGUGA [Fam2.1 aminoacylation ribozyme variant]
self-aminoacylation (biotinyl-Ile-oxazolone): 2.83
self-aminoacylation (biotinyl-Val-oxazolone): 3.25
self-aminoacylation (biotinyl-Leu-oxazolone): 4.54
self-aminoacylation (biotinyl-Phe-oxazolone): 27.7
self-aminoacylation (biotinyl-Met-oxazolone): 4.44
self-aminoacylation (biotinyl-Trp-oxazolone): 5.66

AUUAUCUUGGUCAUCGAGUGA [Fam2.1 aminoacylation ribozyme variant]
self-aminoacylation (biotinyl-Ile-oxazolone): 3.54
self-aminoacylation (biotinyl-Val-oxazolone): 3.11
self-aminoacylation (biotinyl-Leu-oxazolone): 5.73
self-aminoacylation (biotinyl-Phe-oxazolone): 12.4
self-aminoacylation (biotinyl-Met-oxazolone): 5.16
self-aminoacylation (biotinyl-Trp-oxazolone): 6.57

AUUAUUCUGGUCAUCGAGUGA [Fam2.1 aminoacylation ribozyme variant]
self-aminoacylation (biotinyl-Ile-oxazolone): 3.4
self-aminoacylation (biotinyl-Val-oxazolone): 3.12
self-aminoacylation (biotinyl-Leu-oxazolone): 6.25
self-aminoacylation (biotinyl-Phe-oxazolone): 22.9
self-aminoacylation (biotinyl-Met-oxazolone): 5.31
self-aminoacylation (biotinyl-Trp-oxazolone): 7.13

AUUCAAAUAGGUCAUCGGGUG [Fam2.2 aminoacylation ribozyme variant]
self-aminoacylation (biotinyl-Ile-oxazolone): 3.9
self-aminoacylation (biotinyl-Val-oxazolone): 3.38
self-aminoacylation (biotinyl-Leu-oxazolone): 7.01
self-aminoacylation (biotinyl-Phe-oxazolone): 40.1
self-aminoacylation (biotinyl-Met-oxazolone): 5.54
self-aminoacylation (biotinyl-Trp-oxazolone): 5.77

AUUCAACUACGUCAUCGGGUG [Fam2.2 aminoacylation ribozyme variant]
self-aminoacylation (biotinyl-Ile-oxazolone): 3.26
self-aminoacylation (biotinyl-Val-oxazolone): 2.95
self-aminoacylation (biotinyl-Leu-oxazolone): 6.07
self-aminoacylation (biotinyl-Phe-oxazolone): 26
self-aminoacylation (biotinyl-Met-oxazolone): 4.57
self-aminoacylation (biotinyl-Trp-oxazolone): 4.72

AUUCAACUAGGUCACCGGGUG [Fam2.2 aminoacylation ribozyme variant]
self-aminoacylation (biotinyl-Ile-oxazolone): 4.11
self-aminoacylation (biotinyl-Val-oxazolone): 4.37
self-aminoacylation (biotinyl-Leu-oxazolone): 6.53
self-aminoacylation (biotinyl-Phe-oxazolone): 38.8
self-aminoacylation (biotinyl-Met-oxazolone): 5.89
self-aminoacylation (biotinyl-Trp-oxazolone): 5.05

AUUCAACUAGGUCAUCCGGUG [Fam2.2 aminoacylation ribozyme variant]
self-aminoacylation (biotinyl-Ile-oxazolone): 4.6
self-aminoacylation (biotinyl-Val-oxazolone): 3.72
self-aminoacylation (biotinyl-Leu-oxazolone): 8.12
self-aminoacylation (biotinyl-Phe-oxazolone): 45.8
self-aminoacylation (biotinyl-Met-oxazolone): 5.49
self-aminoacylation (biotinyl-Trp-oxazolone): 6.62

AUUCAACUAGGUCAUCGGCUG [Fam2.2 aminoacylation ribozyme variant]
self-aminoacylation (biotinyl-Ile-oxazolone): 1.57
self-aminoacylation (biotinyl-Val-oxazolone): 1.75
self-aminoacylation (biotinyl-Leu-oxazolone): 1.46
self-aminoacylation (biotinyl-Phe-oxazolone): 5.81
self-aminoacylation (biotinyl-Met-oxazolone): 1.91
self-aminoacylation (biotinyl-Trp-oxazolone): 1.45

AUUCAACUAGGUCAUCGGGAG [Fam2.2 aminoacylation ribozyme variant]
self-aminoacylation (biotinyl-Ile-oxazolone): 0.943
self-aminoacylation (biotinyl-Val-oxazolone): 0.961
self-aminoacylation (biotinyl-Leu-oxazolone): 0.899
self-aminoacylation (biotinyl-Phe-oxazolone): 0.48
self-aminoacylation (biotinyl-Met-oxazolone): 1.23
self-aminoacylation (biotinyl-Trp-oxazolone): 1.05

AUUCAACUAGGUCAUCUGGUG [Fam2.2 aminoacylation ribozyme variant]
self-aminoacylation (biotinyl-Ile-oxazolone): 1.9
self-aminoacylation (biotinyl-Val-oxazolone): 1.85
self-aminoacylation (biotinyl-Leu-oxazolone): 3.55
self-aminoacylation (biotinyl-Phe-oxazolone): 17.7
self-aminoacylation (biotinyl-Met-oxazolone): 2.55
self-aminoacylation (biotinyl-Trp-oxazolone): 2.54

AUUCAACUAGGUCAUUGGGUG [Fam2.2 aminoacylation ribozyme variant]
self-aminoacylation (biotinyl-Ile-oxazolone): 2.3
self-aminoacylation (biotinyl-Val-oxazolone): 2.19
self-aminoacylation (biotinyl-Leu-oxazolone): 4.71
self-aminoacylation (biotinyl-Phe-oxazolone): 23.7
self-aminoacylation (biotinyl-Met-oxazolone): 3.46
self-aminoacylation (biotinyl-Trp-oxazolone): 3.66

AUUCAACUAUGUCAUCGGGUG [Fam2.2 aminoacylation ribozyme variant]
self-aminoacylation (biotinyl-Ile-oxazolone): 3.08
self-aminoacylation (biotinyl-Val-oxazolone): 2.45
self-aminoacylation (biotinyl-Leu-oxazolone): 6.15
self-aminoacylation (biotinyl-Phe-oxazolone): 33.1
self-aminoacylation (biotinyl-Met-oxazolone): 4.78
self-aminoacylation (biotinyl-Trp-oxazolone): 4.57

AUUCACAAAGGUCAUCGGGUG [Fam2.2 aminoacylation ribozyme variant]
self-aminoacylation (biotinyl-Ile-oxazolone): 5.84
self-aminoacylation (biotinyl-Val-oxazolone): 5.83
self-aminoacylation (biotinyl-Leu-oxazolone): 12.2
self-aminoacylation (biotinyl-Phe-oxazolone): 84.3
self-aminoacylation (biotinyl-Met-oxazolone): 9.76
self-aminoacylation (biotinyl-Trp-oxazolone): 8.7

AUUCACACAGGUCAUCGGGUG [Fam2.2 aminoacylation ribozyme variant]
self-aminoacylation (biotinyl-Ile-oxazolone): 4.03
self-aminoacylation (biotinyl-Val-oxazolone): 4.47
self-aminoacylation (biotinyl-Leu-oxazolone): 7.14
self-aminoacylation (biotinyl-Phe-oxazolone): 39.6
self-aminoacylation (biotinyl-Met-oxazolone): 5.6
self-aminoacylation (biotinyl-Trp-oxazolone): 5.26

AUUCACAUAGGCCAUCGGGUG [Fam2.2 aminoacylation ribozyme variant]
self-aminoacylation (biotinyl-Ile-oxazolone): 3.23
self-aminoacylation (biotinyl-Val-oxazolone): 3.41
self-aminoacylation (biotinyl-Leu-oxazolone): 5.85
self-aminoacylation (biotinyl-Phe-oxazolone): 34.7
self-aminoacylation (biotinyl-Met-oxazolone): 4.86
self-aminoacylation (biotinyl-Trp-oxazolone): 4.23

AUUCACAUAGGUCAUCGGCUG [Fam2.2 aminoacylation ribozyme variant]
self-aminoacylation (biotinyl-Ile-oxazolone): 1.72
self-aminoacylation (biotinyl-Val-oxazolone): 1.78
self-aminoacylation (biotinyl-Leu-oxazolone): 1.61
self-aminoacylation (biotinyl-Phe-oxazolone): 7.68
self-aminoacylation (biotinyl-Met-oxazolone): 1.64
self-aminoacylation (biotinyl-Trp-oxazolone): 1.89

AUUCACAUAGGUCAUCGGGAG [Fam2.2 aminoacylation ribozyme variant]
self-aminoacylation (biotinyl-Ile-oxazolone): 1
self-aminoacylation (biotinyl-Val-oxazolone): 1.19
self-aminoacylation (biotinyl-Leu-oxazolone): 0.985
self-aminoacylation (biotinyl-Phe-oxazolone): 0.953
self-aminoacylation (biotinyl-Met-oxazolone): 1.13
self-aminoacylation (biotinyl-Trp-oxazolone): 1.76

AUUCACAUUGGUCAUCGGGUG [Fam2.2 aminoacylation ribozyme variant]
self-aminoacylation (biotinyl-Ile-oxazolone): 6.31
self-aminoacylation (biotinyl-Val-oxazolone): 5.97
self-aminoacylation (biotinyl-Leu-oxazolone): 12.8
self-aminoacylation (biotinyl-Phe-oxazolone): 82.8
self-aminoacylation (biotinyl-Met-oxazolone): 10.1
self-aminoacylation (biotinyl-Trp-oxazolone): 8.88

AUUCACCAAGAUCAUCGGGUG [Fam2.2 aminoacylation ribozyme variant]
self-aminoacylation (biotinyl-Ile-oxazolone): 3.1
self-aminoacylation (biotinyl-Val-oxazolone): 3.21
self-aminoacylation (biotinyl-Leu-oxazolone): 5.42
self-aminoacylation (biotinyl-Phe-oxazolone): 33.2
self-aminoacylation (biotinyl-Met-oxazolone): 4.4
self-aminoacylation (biotinyl-Trp-oxazolone): 4.68

AUUCACCAAGGGCAUCGGGUG [Fam2.2 aminoacylation ribozyme variant]
self-aminoacylation (biotinyl-Ile-oxazolone): 4.37
self-aminoacylation (biotinyl-Val-oxazolone): 5.01
self-aminoacylation (biotinyl-Leu-oxazolone): 6.01
self-aminoacylation (biotinyl-Phe-oxazolone): 35.1
self-aminoacylation (biotinyl-Met-oxazolone): 5.2
self-aminoacylation (biotinyl-Trp-oxazolone): 4.74

AUUCACCAAGGUAAUCGGGUG [Fam2.2 aminoacylation ribozyme variant]
self-aminoacylation (biotinyl-Ile-oxazolone): 3.5
self-aminoacylation (biotinyl-Val-oxazolone): 3.19
self-aminoacylation (biotinyl-Leu-oxazolone): 7.71
self-aminoacylation (biotinyl-Phe-oxazolone): 42.2
self-aminoacylation (biotinyl-Met-oxazolone): 5.69
self-aminoacylation (biotinyl-Trp-oxazolone): 4.8
